Source: patent US20210238260A1 (published 2021)
Positions count from the first letter of the chain named. In names and notes the source's numbering stands.

T1: Factor VIIIa (FVIIIa), from recombinant FVIII (Kogenate FS; Bayer healthcare) activated with alpha-thrombin (UniProt P00451 20-2351)
T1 sequence (looked up): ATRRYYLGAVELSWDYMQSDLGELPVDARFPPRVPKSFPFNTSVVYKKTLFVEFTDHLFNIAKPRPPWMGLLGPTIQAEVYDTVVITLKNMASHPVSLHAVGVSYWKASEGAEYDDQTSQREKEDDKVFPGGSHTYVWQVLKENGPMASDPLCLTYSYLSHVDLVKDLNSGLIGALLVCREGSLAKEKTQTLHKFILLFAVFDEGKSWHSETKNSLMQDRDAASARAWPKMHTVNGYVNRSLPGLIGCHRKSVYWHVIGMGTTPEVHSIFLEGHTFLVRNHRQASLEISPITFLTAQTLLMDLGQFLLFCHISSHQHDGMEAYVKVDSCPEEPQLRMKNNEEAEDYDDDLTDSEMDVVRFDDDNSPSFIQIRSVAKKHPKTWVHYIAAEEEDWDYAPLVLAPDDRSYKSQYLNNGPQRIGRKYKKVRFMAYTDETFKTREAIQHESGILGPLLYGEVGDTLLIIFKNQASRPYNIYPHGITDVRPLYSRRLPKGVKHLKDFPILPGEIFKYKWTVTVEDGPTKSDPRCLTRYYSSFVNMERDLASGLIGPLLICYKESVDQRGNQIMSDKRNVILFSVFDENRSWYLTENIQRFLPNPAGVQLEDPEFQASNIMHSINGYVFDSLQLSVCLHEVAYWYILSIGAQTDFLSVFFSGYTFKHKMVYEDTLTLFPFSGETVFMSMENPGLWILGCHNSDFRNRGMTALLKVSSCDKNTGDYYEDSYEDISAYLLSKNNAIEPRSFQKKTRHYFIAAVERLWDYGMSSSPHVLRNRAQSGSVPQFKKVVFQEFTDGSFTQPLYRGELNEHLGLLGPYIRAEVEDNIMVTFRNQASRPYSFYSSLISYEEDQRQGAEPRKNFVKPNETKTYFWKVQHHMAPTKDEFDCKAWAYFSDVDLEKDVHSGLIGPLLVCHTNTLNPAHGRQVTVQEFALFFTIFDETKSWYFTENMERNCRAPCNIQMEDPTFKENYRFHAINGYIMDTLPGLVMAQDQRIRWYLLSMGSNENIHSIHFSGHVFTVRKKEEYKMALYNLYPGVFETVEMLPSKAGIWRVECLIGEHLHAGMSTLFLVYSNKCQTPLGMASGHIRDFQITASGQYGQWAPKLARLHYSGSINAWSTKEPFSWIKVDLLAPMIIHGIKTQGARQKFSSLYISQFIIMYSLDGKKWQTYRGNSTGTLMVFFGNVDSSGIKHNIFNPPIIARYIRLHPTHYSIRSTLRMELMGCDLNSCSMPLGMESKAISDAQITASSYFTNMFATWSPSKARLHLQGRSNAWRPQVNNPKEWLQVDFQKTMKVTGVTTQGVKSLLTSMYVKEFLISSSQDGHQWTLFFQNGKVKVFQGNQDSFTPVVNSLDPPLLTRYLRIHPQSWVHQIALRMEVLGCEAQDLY

B1: FIXa variant R318Y/R338E/R403E/E410S (enzyme)
light: YNSGKLEEFVQGNLERECMEEKCSFEEAREVFENTERTTEFWKQYVDGDQCESNPCLNGGSCKDDINSYECWCPFGFEGKNCELDVTCNIKNGRCEQFCKNSADNKVVCSCTEGYRLAENQKSCEPAVPFPCGRVSVSQTSKLTR
heavy: VVGGEDAKPGQFPWQVVLNGKVDAFCGGSIVNEKWIVTAAHCVETGVKITVVAGEHNIEETEHTEQKRNVIRIIPHHNYNAAINKYNHDIALLELDEPLVLNSYVTPICIADKEYTNIFLKFGSGYVSGWGRVFHKGYSALVLQYLRVPLVDRATCLESTKFTIYNNMFCAGFHEGGRDSCQGDSGGPHVTEVEGTSFLTGIISWGEECAMKGKYGIYTKVSEYVNWIKSKTKLT
notes: also called R150Y/R170E/R233E/E240S
B2: FIXa variant R318Y/R338E/T343R/N346D/R403E/E410N (enzyme)
light: B1 light
heavy: B1 heavy with T163R, N166D, S230N
notes: also called R150Y/R170E/T175R/N178D/R233E/E240N
B3: FIXa variant R318Y/R338E/T343R/N346Y/R403E/E410N (enzyme)
light: B1 light
heavy: B1 heavy with T163R, N166Y, S230N
notes: also called R150Y/R170E/T175R/N178Y/R233E/E240N
B4: FIXa variant Y155F/K228N/R318Y/R338E/R403E/E410N (enzyme)
light: B1 light
heavy: B1 heavy with K48N, S230N
B5: FIXa variant Y259F/K265T/Y345T (enzyme)
light: B1 light
heavy: B1 heavy with Y79F, K85T, Y138R, E158R, Y165T, E223R, S230E
notes: also called Y94F/K98T/Y177T
B6: FIXa variant Y155F/K247N/N249S/R318Y/R338E/E410N (enzyme)
light: B1 light
heavy: B1 heavy with K67N, N69S, E223R, S230N
B7: FIXa variant Y155F/K247N/N249S/N260S (enzyme)
light: B1 light
heavy: B1 heavy with K67N, N69S, N80S, Y138R, E158R, E223R, S230E
B8: FIXa variant R318Y/R338E/T343R/R403E/E410N (enzyme)
light: B1 light
heavy: B1 heavy with T163R, S230N
notes: also called R150Y/R170E/T175R/R233E/E240N
B9: FIXa-R318Y/R338E/E410N/T412V (enzyme)
chain 1: B1 light
chain 2: B1 heavy with E223R, S230N, T232V
notes: also called R150Y/R170E/E240N/T242V
B10: FIXa-D104N/K106S/I251S/R318Y/R338E/E410N (enzyme)
chain 1: B1 light with D104N, K106S
chain 2: B1 heavy with I71S, E223R, S230N
B11: FIXa-R318Y/R338E/E410S (enzyme)
chain 1: B1 light
chain 2: B1 heavy with E223R
notes: also called R150Y/R170E/E240S
B12: FIXa-Y155F/K247N/N249S/R318Y/R338E/E410N (enzyme)
chain 1: B1 light
chain 2: B1 heavy with K67N, N69S, E223R, S230N
B13: FIXa-R318Y/R338E/T412A (enzyme)
chain 1: B1 light
chain 2: B1 heavy with E223R, S230E, T232A
notes: also called R150Y/R170E/T242A
B14: FIXa-K247N/N249S/R318Y/R338E/R403E/E410N (enzyme)
chain 1: B1 light
chain 2: B1 heavy with K67N, N69S, S230N
notes: also called K82N/N84S/R150Y/R170E/R233E/E240N
B15: FIXa-A103N/N105S/K247N/N249S/R318Y/R338E/R403E/E410N (enzyme)
chain 1: B1 light with A103N, N105S
chain 2: B1 heavy with K67N, N69S, S230N
B16: FIXa-D104N/K106S/Y155F/K228N/K247N/N249S (enzyme)
chain 1: B1 light with D104N, K106S
chain 2: B1 heavy with K48N, K67N, N69S, Y138R, E158R, E223R, S230E
B17: FIXa-Y259F/K265T/Y345T (enzyme)
chain 1: B1 light
chain 2: B1 heavy with Y79F, K85T, Y138R, E158R, Y165T, E223R, S230E
notes: also called Y94F/K98T/Y177T
B18: FIXa-I251S/R318Y/R338E/E410N (enzyme)
chain 1: B1 light
chain 2: B1 heavy with I71S, E223R, S230N
notes: also called I86S/R150Y/R170E/E240N; I251S/R318Y/E410N/R338E
B19: FIXa-Y155F/N260S/R318Y/R338E/R403E/E410N (enzyme)
chain 1: B1 light
chain 2: B1 heavy with N80S, S230N
B20: FIXa-D104N/K106S/K228N/K247N/N249S (enzyme)
chain 1: B1 light with D104N, K106S
chain 2: B1 heavy with K48N, K67N, N69S, Y138R, E158R, E223R, S230E
B21: FIXa-K247N/N249S/R318Y/R338E/E410N (enzyme)
chain 1: B1 light
chain 2: B1 heavy with K67N, N69S, E223R, S230N
notes: also called K82N/N84S/R150Y/R170E/E240N
B22: FIXa-D203N/F205T/R338E (enzyme)
chain 1: B1 light
chain 2: B1 heavy with D23N, F25T, Y138R, E223R, S230E
notes: also called D39N/F41T/R170E (chymotrypsin numbering)
B23: FIXa-K228N/R338E/R403E (enzyme)
chain 1: B1 light
chain 2: B1 heavy with K48N, Y138R, S230E
notes: also called K63N/R170E/R233E (chymotrypsin numbering)
B24: FIXa-D203N/F205T/K228N (enzyme)
chain 1: B1 light
chain 2: B1 heavy with D23N, F25T, K48N, Y138R, E158R, E223R, S230E
notes: also called D39N/F41T/K63N (chymotrypsin numbering)
B25: FIXa-D203N/F205T/R338E/R403E (enzyme)
chain 1: B1 light
chain 2: B1 heavy with D23N, F25T, Y138R, S230E
notes: also called D39N/F41T/R170E/R233E (chymotrypsin numbering)
B26: FIXa-D203N/F205T/R338A (enzyme)
chain 1: B1 light
chain 2: B1 heavy with D23N, F25T, Y138R, E158A, E223R, S230E
notes: also called D39N/F41T/R170A (chymotrypsin numbering)
B27: FIXa-D203N/F205T/E410N (enzyme)
chain 1: B1 light
chain 2: B1 heavy with D23N, F25T, Y138R, E158R, E223R, S230N
notes: also called D39N/F41T/E240N (chymotrypsin numbering)
B28: FIXa-K228N/R318Y/E410N (enzyme)
chain 1: B1 light
chain 2: B1 heavy with K48N, E158R, E223R, S230N
notes: also called K63N/R150Y/E240N (chymotrypsin numbering)
B29: FIXa-R318Y/R403E/E410N (enzyme)
chain 1: B1 light
chain 2: B1 heavy with E158R, S230N
notes: also called R150Y/R233E/E240N (chymotrypsin numbering)
B30: FIXa-D104N/K106S/R318Y/R338E/E410N (enzyme)
chain 1: B1 light with D104N, K106S
chain 2: B1 heavy with E223R, S230N
notes: also called D104N/K106S/R318Y/E410N/R338E
B31: FIXa-R338E/R403E/E410N (enzyme)
chain 1: B1 light
chain 2: B1 heavy with Y138R, S230N
notes: also called R170E/R233E/E240N (chymotrypsin numbering)
B32: FIXa-D203N/F205T/R318Y (enzyme)
chain 1: B1 light
chain 2: B1 heavy with D23N, F25T, E158R, E223R, S230E
notes: also called D39N/F41T/R150Y (chymotrypsin numbering)

target: T1, Factor VIIIa (FVIIIa), from recombinant …; assay: apparent functional KD (KD-app): FX activation rate vs FVIIIa titration, fluorogenic Xase assay with PC/PS vesicles and Ca2+
Excerpt: (§1) The activity of alpha-thrombin was then quenched by the addition of a highly specific thrombin inhibitor, hirudin, prior to initiating the assay.

Binder	Kd
B1	53.1 nM
B2	76.2 nM
B3	15.6 nM
B4	31.2 nM
B5	115 nM
B6	7.4 nM
B7	167 nM
B8	14.5 nM

target: T2, plasma purified human AT-III (antithrombin III) (human, UniProt P01008 33-464); assay: K0.5: AT-III/UFH titrated on FIXa, residual activity on fluorogenic substrate
T2 construct: also called AT-III/UFH (in complex with unfractionated heparin)

Binder	IC50
B9	4870 nM
B10	8980 nM
B11	5400 nM
B12	3880 nM
B13	7660 nM
B14	8080 nM
B15	2500 nM
B16	32 nM
B17	6 nM
B18	5860 nM
B19	9700 nM
B20	41 nM
B21	1510 nM

target: T1, Factor VIIIa (FVIIIa), from recombinant …; assay: ratio of KD-app of Catalyst Biosciences WT FIXa to KD-app of the variant, same Xase assay
Excerpt: as §1

Binder	KD-WT/KD-mut
B1	1.8 fold
B2	1.3 fold
B3	6.1 fold
B4	3.1 fold
B5	0.8 fold
B6	12.8 fold
B7	0.6 fold
B8	6.6 fold

target: T3, antithrombin III (plasma purified human AT-III), used as the AT-III/unfractionated heparin complex (human, UniProt P01008 33-464); assay: K0.5: AT-III/UFH titrated against FIXa, 10 s, residual cleavage of Mesyl-D-CHG-Gly-Arg-AMC
T3 construct: also called AT-III/UFH

Binder	IC50
B22	1170 nM
B23	1680 nM
B24	822 nM
B25	1520 nM
B26	423 nM
B27	377 nM
B28	475 nM
B29	7070 nM
B30	6330 nM
B31	2350 nM
B32	7230 nM
